Reference: PMC12069319, “Transcriptional co-regulator OCA-B/Pou2af1 restricts Th2 differentiation”

B1: RHS5_12-Cy5 (dsDNA)
DNA 1: TCGAGAAGCGCTGATTAGCATCTGTCATTA
DNA 2: TAATGACAGATGCTAATCAGCGCTTCTCGA
B2: RHS6-Cy5 (dsDNA)
DNA 1: CACCATGCAAAGGATGTGCGCGGACTCCCTTCCATTTGCTGGCCTCTTATCTGATA
DNA 2: TATCAGATAAGAGGCCAGCAAATGGAAGGGAGTCCGCGCACATCCTTTGCATGGTG

Molecular target: Oct1 DNA binding domain (Oct1-DBD) (human (from pBabe-hOct1), UniProt P14859 280-438)
Experiment: EMSA; EMSA: 0.6X buffer D (1X: 20 mM HEPES, 100 mM KCl, 1 mM DTT), 50 ng/ul poly-dI/dC, 1 ug/ul BSA, on ice 15 min, 6% native PAGE in 0.5X TBE; probe 50 nM (1 nM for)
Conditions: protein: recombinant; tags: His (pET28a); blunt

Chain of Oct1 DNA binding domain (Oct1-DBD) (P14859 280-438): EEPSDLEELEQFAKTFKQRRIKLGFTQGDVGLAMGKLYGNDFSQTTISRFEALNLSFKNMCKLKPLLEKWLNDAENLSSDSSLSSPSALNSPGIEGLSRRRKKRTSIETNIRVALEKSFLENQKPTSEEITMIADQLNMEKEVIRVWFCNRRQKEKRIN

Binder | binding result
B1 | binds
B2 | binds
